The labels stand for the following.
B1: RHOBTB3 (parent)
chain: VSHVFMLLFNVKSPTDIQDSSIIR
B2: KLHDC10 (parent)
chain: PSLLELAWEKLLAAFPNLANLSRT
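Further: lentivirally expressed fusions sorted by FACS into six bins by GFP to DsRed ratio, PSI derived from sequencing read proportions per bin multiplied by bin number.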

Variants of B1 are the subject of the first series. Kind of series: protein stability index of a GFP-peptide fusion (GPS, HEK-293T) (PSI 1-6); higher = more stable. As to conditions: c terminus: a fixed tail appended.
As for VSHVFMLLFNVKSPTDIQDASIIR [S20A], the protein stability index was 2.66.
The same measure, in the same setting: as for VSHVFMLLFNVKSPTDIQDDSIIR [S20D], the figure is 2.91.
For the variant VSHVFMLLFNVKSPTDIQDQSIIR [S20Q], the protein stability index amounted to 3.34.
As for VSHVFMLLFNVKSPTDIQDWSIIR [S20W], the protein stability index was 3.16.
Take VSHVFMLLFNVKSPTDIQDMSIIR [S20M]: the protein stability index amounted to 3.1.
On the same count and under the same terms, as for VSHVFMLLFNVKSPTDIQDYSIIR [S20Y], the figure is 2.66.
Still for that read-out and setting: to VSHVFMLLFNVKSPTDIQDHSIIR [S20H] belongs 2.49; to VSHVFMLLFNVKSPTDIQDRSIIR [S20R], 1.66.
Same read-out and setting: as for VSHVFMLLFNVKSPTDIQDKSIIR [S20K], the figure is 1.33.
As for VSHVFMLLFNVKSPTDIQDTSIIR [S20T], the protein stability index turned out to be 2.05.
Still for that read-out and setting: to VSHVFMLLFNVKSPTDIQDPSIIR [S20P] belongs 3.04.

The variants in a further series derive from B2. The series is described as above. Particulars: c terminus: a fixed tail appended.
PSLLHLAWEKLLAAFPNLANLSRT [E5H]: the protein stability index was determined as 2.39.
For the variant PSLLALAWEKLLAAFPNLANLSRT [E5A], the protein stability index is 2.28.
On the same count and under the same terms, as for PSLLCLAWEKLLAAFPNLANLSRT [E5C], the figure is 1.97; as for PSLLILAWEKLLAAFPNLANLSRT [E5I], 1.8; as for PSLLFLAWEKLLAAFPNLANLSRT [E5F], 2.06.
As to PSLLGLAWEKLLAAFPNLANLSRT [E5G], the protein stability index was 2.42.
As to PSLLDLAWEKLLAAFPNLANLSRT [E5D], the protein stability index stood at 2.88.
As to PSLLKLAWEKLLAAFPNLANLSRT [E5K], the protein stability index stood at 2.28.
As to PILLELAWEKLLAAFPNLANLSRT [S2I], the protein stability index came out at 1.17.
Still for that read-out and setting: to PKLLELAWEKLLAAFPNLANLSRT [S2K] belongs 2.17; to PLLLELAWEKLLAAFPNLANLSRT [S2L], 2.19; to PGLLELAWEKLLAAFPNLANLSRT [S2G], 1.72.
The same measure, in the same setting: to PALLELAWEKLLAAFPNLANLSRT [S2A] belongs 2.09; to PRLLELAWEKLLAAFPNLANLSRT [S2R], 1.82; to PWLLELAWEKLLAAFPNLANLSRT [S2W], 1.94.
Still for that read-out and setting: to PPLLELAWEKLLAAFPNLANLSRT [S2P] belongs 2.25.
As to PDLLELAWEKLLAAFPNLANLSRT [S2D], the protein stability index turned out to be 2.67.
For the variant PHLLELAWEKLLAAFPNLANLSRT [S2H], the protein stability index was 1.78.
Consider PTLLELAWEKLLAAFPNLANLSRT [S2T], for which the protein stability index came out at 1.96.
As for PMLLELAWEKLLAAFPNLANLSRT [S2M], the protein stability index worked out at 1.61.
PVLLELAWEKLLAAFPNLANLSRT [S2V]: the protein stability index was determined as 1.86.
For PCLLELAWEKLLAAFPNLANLSRT [S2C], the protein stability index was 1.34.
Consider PYLLELAWEKLLAAFPNLANLSRT [S2Y], for which the protein stability index came out at 2.36.
Still for that read-out and setting: as for PQLLELAWEKLLAAFPNLANLSRT [S2Q], the figure is 1.79; as for PNLLELAWEKLLAAFPNLANLSRT [S2N], 1.77; as for PFLLELAWEKLLAAFPNLANLSRT [S2F], 2.41.
On to PELLELAWEKLLAAFPNLANLSRT [S2E], for which the protein stability index came out at 2.03.
For the variant HSLLELAWEKLLAAFPNLANLSRT [P1H], the protein stability index worked out at 2.21.
Regarding FSLLELAWEKLLAAFPNLANLSRT [P1F], the protein stability index worked out at 2.52.
As for ESLLELAWEKLLAAFPNLANLSRT [P1E], the protein stability index was 3.28.
With TSLLELAWEKLLAAFPNLANLSRT [P1T], the protein stability index turned out to be 1.85.
The same measure, in the same setting: as for DSLLELAWEKLLAAFPNLANLSRT [P1D], the figure is 2.06; as for LSLLELAWEKLLAAFPNLANLSRT [P1L], 2.23; as for MSLLELAWEKLLAAFPNLANLSRT [P1M], 1.94.
Same read-out and setting: as for RSLLELAWEKLLAAFPNLANLSRT [P1R], the figure is 2.12.
The same measure, in the same setting: to ASLLELAWEKLLAAFPNLANLSRT [P1A] belongs 2.42; to QSLLELAWEKLLAAFPNLANLSRT [P1Q], 2.21; to CSLLELAWEKLLAAFPNLANLSRT [P1C], 1.86.
On to WSLLELAWEKLLAAFPNLANLSRT [P1W], for which the protein stability index came out at 1.8.
NSLLELAWEKLLAAFPNLANLSRT [P1N]: the protein stability index stood at 2.17.
On the same count and under the same terms, to ISLLELAWEKLLAAFPNLANLSRT [P1I] belongs 1.92; to SSLLELAWEKLLAAFPNLANLSRT [P1S], 1.85; to KSLLELAWEKLLAAFPNLANLSRT [P1K], 2.79.
Same read-out and setting: to VSLLELAWEKLLAAFPNLANLSRT [P1V] belongs 2; to YSLLELAWEKLLAAFPNLANLSRT [P1Y], 1.67.
Turning to PSLPELAWEKLLAAFPNLANLSRT [L4P], the protein stability index was found to be 1.83.
On the same count and under the same terms, to PSLKELAWEKLLAAFPNLANLSRT [L4K] belongs 3.92; to PSLQELAWEKLLAAFPNLANLSRT [L4Q], 3.05.
The same measure, in the same setting: to PSLMELAWEKLLAAFPNLANLSRT [L4M] belongs 2.47; to PSLFELAWEKLLAAFPNLANLSRT [L4F], 2.75; to PSLIELAWEKLLAAFPNLANLSRT [L4I], 2.01.
Still for that read-out and setting: to PSLGELAWEKLLAAFPNLANLSRT [L4G] belongs 2.58; to PSLHELAWEKLLAAFPNLANLSRT [L4H], 2.88.
In the case of PSLYELAWEKLLAAFPNLANLSRT [L4Y], the protein stability index was found to be 2.06.
Still for that read-out and setting: as for PSLWELAWEKLLAAFPNLANLSRT [L4W], the figure is 2.53; as for PSLAELAWEKLLAAFPNLANLSRT [L4A], 3.11; as for PSLDELAWEKLLAAFPNLANLSRT [L4D], 2.07.
Turning to PSLCELAWEKLLAAFPNLANLSRT [L4C], the protein stability index was found to be 3.05.
On the same count and under the same terms, as for PSLEELAWEKLLAAFPNLANLSRT [L4E], the figure is 2.1.
On the same count and under the same terms, to PSLVELAWEKLLAAFPNLANLSRT [L4V] belongs 2.26; to PSLTELAWEKLLAAFPNLANLSRT [L4T], 3.05.
Consider PSLNELAWEKLLAAFPNLANLSRT [L4N], for which the protein stability index was found to be 2.83.
PSLRELAWEKLLAAFPNLANLSRT [L4R]: the protein stability index came to 3.93.
For PSLSELAWEKLLAAFPNLANLSRT [L4S], the protein stability index was 3.52.
With PSNLELAWEKLLAAFPNLANLSRT [L3N], the protein stability index was found to be 1.63.
PSHLELAWEKLLAAFPNLANLSRT [L3H]: the protein stability index was 1.75.
In the case of PSCLELAWEKLLAAFPNLANLSRT [L3C], the protein stability index turned out to be 1.85.
For the variant PSGLELAWEKLLAAFPNLANLSRT [L3G], the protein stability index amounted to 1.56.
The same measure, in the same setting: to PSQLELAWEKLLAAFPNLANLSRT [L3Q] belongs 2.29; to PSALELAWEKLLAAFPNLANLSRT [L3A], 2.24; to PSMLELAWEKLLAAFPNLANLSRT [L3M], 1.65.
Still for that read-out and setting: as for PSYLELAWEKLLAAFPNLANLSRT [L3Y], the figure is 1.86; as for PSWLELAWEKLLAAFPNLANLSRT [L3W], 1.9.
For the variant PSILELAWEKLLAAFPNLANLSRT [L3I], the protein stability index was found to be 1.56.
With PSRLELAWEKLLAAFPNLANLSRT [L3R], the protein stability index is 2.06.
PSSLELAWEKLLAAFPNLANLSRT [L3S]: the protein stability index was found to be 1.7.
On to PSPLELAWEKLLAAFPNLANLSRT [L3P], for which the protein stability index is 1.72.
On to PSVLELAWEKLLAAFPNLANLSRT [L3V], for which the protein stability index came to 1.73.
As for PSDLELAWEKLLAAFPNLANLSRT [L3D], the protein stability index was 2.16.
Still for that read-out and setting: to PSKLELAWEKLLAAFPNLANLSRT [L3K] belongs 2.33; to PSELELAWEKLLAAFPNLANLSRT [L3E], 1.83.
For PSFLELAWEKLLAAFPNLANLSRT [L3F], the protein stability index came out at 2.22.
In the case of PSTLELAWEKLLAAFPNLANLSRT [L3T], the protein stability index was 1.97.

Source of the values: the supplement of paper PMC10567573.
